# Reference: US20250304662A1 (published 2025)
# T1: Kp FimHLD
# T1 chain: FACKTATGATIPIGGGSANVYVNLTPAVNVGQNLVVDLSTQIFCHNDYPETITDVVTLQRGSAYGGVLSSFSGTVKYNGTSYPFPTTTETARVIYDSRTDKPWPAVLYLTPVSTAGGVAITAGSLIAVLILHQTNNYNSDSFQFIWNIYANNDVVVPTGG
# T2: Ec FmlHLD
# T2 chain: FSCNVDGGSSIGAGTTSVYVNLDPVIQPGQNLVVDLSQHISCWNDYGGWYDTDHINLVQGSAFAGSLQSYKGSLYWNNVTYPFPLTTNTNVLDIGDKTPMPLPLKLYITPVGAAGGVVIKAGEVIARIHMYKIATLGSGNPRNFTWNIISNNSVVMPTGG
# What was measured:
# Experiment in all cases: ELISA
# Kp FimHLD = target: T1, Kp FimHLD
# Ec FmlHLD = target: T2, Ec FmlHLD
# Ec FimHLD = target: Ec FimHLD
Binder,EC50 (Kp FimHLD) [µg/mL],EC50 (Ec FmlHLD) [µg/mL],EC50 (Ec FimHLD) [µg/mL]
"Kp 1E07 (antibody, V domains shown) VH: EVQLQQPGAELVKPGASVKLSCKASGYTFTSYWMHWVKQRPGQGLEWIGLIHPNSGSTYYNEKFKNKATLTVDKSSSTAYMQLSSLTSEDSAVYYCARWDDSYWYFKVWGTGTTVTVSS VL: QIVLTQSPAILSASPGEKVTMTCRASSSVSYMHWYQQKPGSSPKPWIYATSNLASGVPARFSGSGSGTSYSLTISRVEAEDAATYYCQQWSSNPYTFGGGTKLEIKR",0.0115,0.0117,0.0094
"Kp 2H07 (antibody, V domains shown) VH: EVQLQQSGPVLVKPGPSVNISCKASGFTFTDYYIHWVKQSHGKSLEWIGLVYPYSGGTYYNQKFKGKATLTVDASSSTAYMELGSLTSEDSAVYYCARLGDNFYYFDYWGQGTTLTVSS VL: QIVLTQSPTLMAASPGEKVTITCSVSSSISSSNLHWYQQKSETSPKPWIYGTSNLASGVPVRFSGSGSGTSYSLTISSMEAEDAATYYCQQWRSYPYTFGGGTKLEIKR",0.0137,2.72,0.0104
"Kp 2D10 (antibody, V domains shown) VH: EVQLQQSGAELVKPGASVKLSCKASGYTFTTYWMHWMKQWPGQGLEWIGLIHPNSGSTYYNEKFKSKATLTVDKSSSTAYMQLSSLTSEDSAVYYCARFEELWGGYWYFDVWGTGTTVTVSS VL: QIVLTQSPALMAASPGEKVTITCSVSSSISSSNLHWYQQKSETSPKPWIYGTSNLASGVPVRFSGSGSGTSYSLTISSMEAEDAATYYCQQWSSYPYTFGGGTKLEIKR",0.0109,10.1,0.0119
"Kp1 2H04 (antibody, V domains shown) VH: EVQLQQSGAELVKPGASVKLSCKASGYTFTSYWMHWVKQRPGQGLEWIGLIHPNSSSTYYNEKFKTRATLTVDKSSSTAYMQLSSLTSEDSAVYYCARLGYGNSYWYFDVWGTGTTVTVSS VL: QIVLTQSPALMAASPGEKVTITCSVSSSISSSNLHWYQQKSETSPKPWIYGTSNLASGVPIRFSGSGSGTSYSLTISSLEAEDAATYYCQQWRSYPWTFGGGTKLEIKR",0.0096,0.0154,0.0178
"Ec H9 (antibody, V domains shown) VH: EVQLQQSGPVLVKPGPSVKISCKASGFTFTDYFVHWVKQSHGKSLEWIGLVSPYNGGTYYNQQFKGKATLTVDTSSSTAYMDLNSLTSEDSAVYYCARLLRGYWYFDVWGTGTTVTVSS VL: QIVLTQSPALMAASPGEKVTITCSVSSSISSSTLHWYQQKSETSPKPWIYGTSNLASGVPVRFGGSGSGTSYSLTISSMEAEDAATYYCQQWSTYPYTFGGGTKLEIKR",0.0243,0.015,0.0301
"Kp1 1B03 (antibody, V domains shown) VH: EVQLQQSGAELVKPGASVKLSCKASGYTFTSYWMHWVQQRPGQGLEWIGLIHPIGGGTHYNEKFKNKATLTVDKSSSTAYMQLSSLTSEDSAVYYCARLGTGPYYFDYWGQGTTLTVSS VL: QIVLTQSPALMAASPGEKVTITCSVSSSISSSTLDWYQQKSETSPKPWVYGTSNLASGVPVRFSGSGSGTSYSLTISSMEAEDAATYYCQQWSSYPWTFGGGTKLEIKR",0.0125,3.06,0.0092
"Kp1 1A02 (antibody, V domains shown) VH: EVQLQQSGPVLVKPGPSMKISCKASGFTFTDYYIHWVRQSHGKSLEWIGLVSPYNGGTYYNQKFKGKATLTVDSSSSTAYMELSSLTSEDSAVYYCARLGYYGDWYYFDYWGQGTPLTVSS VL: QIVLTQSPALMATSPGEKVTITCSVSSSISSSNLNWYQQKSETSPKPWIYGTSNLASGVPVRFSGSGSGTSYSLTISSMEAEDAATYYCQQWSSYPYTFGGGTKLEIKR",0.0185,2.1,0.0144
